Assay: yeast display, Sf9 membrane polyspecificity reagent, FACS + sequencing; frameworks hold sequencing errors
Method in brief: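 Galactose induction of a Saccharomyces cerevisiae BJ5465 synthetic nanobody display library ran 36–48 hours. The cells were then stained for 1 hour at 4 °C with 10% biotinylated, detergent-solubilized Sf9 membrane reagent, pulled down on streptavidin microbeads and FACS-sorted into low and high (top ~1%) gates on expression and reagent-binding fluorescence. Labels for polyreactivity follow the gate of origin.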

| Sequence | polyreactivity (PSR sort gate) |
| --- | --- |
| QVQLVESGGGLVQAGGSLRLSCAASGGIFVANAMGWYRQAPGKERELVAAISRSGGSTYYADSVKGRFTISRDNAKNTVYLQMKSLKPEDTAVYYCAAKSRRQFTVGLTSDYRGQGTQVTVSS | high polyreactivity |
| QVQLVESGGGLVQAGGSLRLSCAASGGIFVGNAMGWYRQAPGKERELVAAITYRGGRTYYADSVKGRFTISRDNAKNTVYLQMNSLKPEDTAVYYCNAYKQGGRSKYNYWGQGTQVTVSS | high polyreactivity |
| QVQLVESGGGLVQAGGSLRLSCAASGGIFVGYAMGWYRQAPGKERELVAAISSGGNTYYADSVKGRFTISRDNAKNTVYLQMNSLKPEDTAVYYCAAVRQYQGYRYDYWGQGTQVTVSS | high polyreactivity |
| QVQLVESGGGLVQAGGSLRLSCAASGGIFVGYAMGWYRQAPGKERELVASIDGSDGSTFYADSVKGRFTISRDNAKNTVYLQMNSLKPVDTAVYYCNARATLLSPANTIRGYDYWGQGTQVTVSS | low polyreactivity |
| QVQLVESGGGLVQAGGSLRLSCAASGGIFVLYAMGWYRQAPGKERELVAAIRYGGSSTYYADSVKGRFTISRDYAKNTVYLQMNSLKPEDTAVYYCAAEPYSWDTWVDYDYWGQGTQVTVSS | low polyreactivity |
| QVQLVESGGGLVQAGGSLRLSCAASGGIFVQNAMGWYRQAPGKERELVAAITNGGSTYYADSVKGRFTISRDNAKNTVYLQMNSLKPEDTAVYYCAVDEYFIQDMDYWGQGTQVTVSS | low polyreactivity |
| QVQLVESGGGLVQAGGSLRLSCAASGGIFVRYAMGWYRQAPGKERELVAAISYSGGSTYYADSVKGRFTISRDNAKNTVYLQLNSLKPEDTAVYYCAAYVTGRYDWGQVTQVTVSS | high polyreactivity |
| QVQLVESGGGLVQAGGSLRLSCAASGGIFVTYAMGWYRKAPGKERELLAAISANGGDTYYADSVKGRFTISRDNAKTSVYLQMNRLKPEDTAVYYCAADGFLPILHPVPWSYYYPFGYWGQGTHVTVSS | low polyreactivity |
| QVQLVESGGGLVQAGGSLRLSCAASGGIFVTYAMGWYRQAPGKERELVAAITSGGTTYYADSVKGRFTISRDNAKNTVYLQMNSLKPEDTAVYYCAADPTNSYLEYDYWGQGTQVTVSS | low polyreactivity |
| QVQLVESGGGLVQAGGSLRLSCAASGGIFWAYAMGWYRQAPGKERELVAAITTRGTSTYYADSVKGRFTISCDNAKNTVYLQMNSLKPEDTAVYYCAAALYGYYSTLTTYWGQGTQVTVSS | high polyreactivity |
| QVQLVESGGGLVQAGGSLRLSCAASGGIFWVYAMGWYRQAPGKERELVAAISNSDTSTSYADSVKGRFTISRDNAKNTVYLQMNSLKPEDTAVYYCNADSPSLSGDYWGQGTQVTVSS | low polyreactivity |
| QVQLVESGGGLVQAGGSLRLSCAASGGIFWYYTMGWYRQAPGKERELVATLSSGGRTYYADSVKGRFTMSRDNAKNTVYLQMNSLKPEDTAVYYCAAVGWYHDYYWGQGTQVTVSS | high polyreactivity |
| QVQLVESGGGLVQAGGSLRLSCAASGGIFWYYTRVWYRQAPGKERELVATISSGGRTYYADSVKGRFTISRDNAKNTVYLQMNSLKPEHTAVYYCAAVGWYHDYYWGQGTQVTVSS | high polyreactivity |
| QVQLVESGGGLVQAGGSLRLSCAASGGIFYFNAMGWYRQAPGKERELVASITWSGGNTYYADSVKGRFTISRDNAKNTVYLQMNSLKPEDTAVYYCAADTQEYRPTYDYWGQGTQVTVSS | low polyreactivity |
| QVQLVESGGGLVQAGGSLRLSCAASGGIFYFYAMGWYRQAPGKERELVAVITWSGGRTRYADSVKGRFTISRDNAKNTVYLQMNSLKPEDTAVYYCATYGVNPPGVEEYNYWGQGTQVTVSS | high polyreactivity |
| QVQLVESGGGLVQAGGSLRLSCAASGGIFYIYAMGWYRQAPGQERELVAAISWRGTSTYYADSVKGRFTISRDNAKNTVYLQMNRLKPEDTAVYYCAADFSYTSYATRYQGDYWGQGTQVTVSS | low polyreactivity |

| Sequence | polyreactivity (PSR sort gate) |
| --- | --- |
| QVQLVESGGGLVQAGGSLRLSCAASGGIFYLYAMGWYRQAPGKERELVAAISWSGTSTYYADSVKGRFTISRDNAKNTVYLQMNSLKPEDTAVYYCAADYERYYAKAINYDYWGQGTQVTVSS | low polyreactivity |
| QVQLVESGGGLVQAGGSLRLSCAASGGIFYPYAMGGYRQAPGKERELVASIDVSDGSTYYADSVKGRFTISRDNAKNTVYLQMNSLKPEDTAVYYCAADRYYKAIDFEGDYWGQGTQVTVSS | low polyreactivity |
| QVQLVESGGGLVQAGGSLRLSCAASGGIFYRYAMGWYRQAPGKERELVAAITRSGANTYYADSVKGRFTISRDNAKNTVYLLMNSLKPEDTAVYYCNARSYLYYSGQYDYWGQGTQVTVSS | high polyreactivity |
| QVQLVESGGGLVQAGGSLRLSCAASGGIFYRYAMGWYRQAPGKERELVAAITSSGGSTYYADSVKGRFTISRDNAKNTVYLQMNSLKPEDTAVYYCAADYGYYGAGSYFDRGDYWGQGTQVTVSS | high polyreactivity |
| QVQLVESGGGLVQAGGSLRLSCAASGGIFYRYVMRWYRQAPGKERELVAAITFSGGSTYYSDSVKGRFTISRDNAKNTVYLQMNSLKPEDTAVYYCAADTYYNPYWLDYWGQGTQVTVSS | low polyreactivity |
| QVQLVESGGGLVQAGGSLRLSCAASGGIFYSYAMGWYRQAPGKERELVAAISGRGGSTYYADSVKGRFTISRDNAKNSVNLQMNSLKPEDTAVYYCNALGSQRYDYWGQGTQVTVSS | high polyreactivity |
| QVQLVESGGGLVQAGGSLRLSCAASGGIFYSYAMGWYRQAPGKERELVAALSRGSRTYYADSVKGRFTISRDNAKNTVYLQMNSLKPEDTAVYYCAAYIVGSYRDGYWGQGTQVSVSS | high polyreactivity |
| QVQLVESGGGLVQAGGSLRLSCAASGGIFYTYALGWYRQAPGKERELVAGINWSGSSTYYADSVKGRFTISRDNAKNTVYLQMNSLKPEDTAVYYCAARSYSYSTGDYWGQGTQVTVSS | low polyreactivity |
| QVQLVESGGGLVQAGGSLRLSCAASGGIFYTYAMGWYRQAPGKERELVAAISSSGGSTYYADSVKGRFTISRDNAKNTVYLQMNSLKPEDTAVYYCAKDSSTGAGARRRYGYWGQGTQVTVSS | low polyreactivity |
| QVQLVESGGGLVQAGGSLRLSCAASGGIFYVNAMGWYRQAPGKERELVAAITSDGVSTYYADSVKGRFTISRDNAKNTVYLQMNSLKPEDTAVYYCAARFQYYRKYDYWGQGTQVTVSS | low polyreactivity |
| QVQLVESGGGLVQAGGSLRLSCAASGGIFYYYAMGWYRQAPGKERELVAAISWSGGSTYYADSVKGRFTISRDNAKNTVYLQMNSLKPDDTAVYYCATYSDFHYAQLEYDYWGQGTQVTVSS | low polyreactivity |
| QVQLVESGGGLVQAGGSLRLSCAASGGIIGHYDMGWYRQAPGKERELVAAIIGGGSTNYADSVKGRFTISRDNAKNTVYLQMNSLKPEDTAVYYCNVAHGTQGWWGRNDYWGQGTQVTVSS | low polyreactivity |
| QVQLVESGGGLVQAGGSLRLSCAASGGIIQNYVMGWYRQAPGKEREFVATISQRGGITYYADSVKGRFTISRDNAKNTVYLQMNSLKPEDTAVYYCAARSYYAVYYWGQGTQVTVSS | high polyreactivity |
| QVQLVESGGGLVQAGGSLRLSCAASGGILDTYALGWYRQAPGKERELVAAITSGGNTNYADSVKGRFTISRDNAKNTVYLQMNSLKPEDTAVYYCAALYTVSYLTSPVSYRYDYWGQGSQVTVSS | low polyreactivity |
| QVQLVESGGGLVQAGGSLRLSCAASGGINGTYTMGWYRQAPGKEREMGAAISKRGGNTYYADSVKGRFTISRDNAKNTVYLQMNSLKPEDTAVYYCAKRVSGSPPTAGSLSDSWGQGTQVTVSS | high polyreactivity |
| QVQLVESGGGLVQAGGSLRLSCAASGGISDVYAMGWYRQAPGKERELVAAINWSGGSTYYADSVKGRFTISRDNAKNTVYLQMNSLKPEDTAVYYCAADPGIIGTFDWYDYWGQGTQVTVSS | low polyreactivity |

From the nanobody polyreactivity screen of Harvey et al. (2022)
